According to patent US20060051395A1 (AFFINERGY, published 2006):
Ends that are not written are not given here.

Molecular target: T1, Bone Morphogenic Protein 2 (BMP-2) (UniProt P12643 283-396)
T1 construct: Bought from Medtronic; In the phage ELISAs it was biotinylated with NHS-biotin (about one biotin per molecule) and held on streptavidin plates; In the peptide assays it was unlabelled
Experiment: estimated affinity from solution-phase binding of biotinylated peptide and BMP-2, capture on streptavidin plate, anti-BMP antibody detection

T1 sequence (P12643 283-396 limits assumed): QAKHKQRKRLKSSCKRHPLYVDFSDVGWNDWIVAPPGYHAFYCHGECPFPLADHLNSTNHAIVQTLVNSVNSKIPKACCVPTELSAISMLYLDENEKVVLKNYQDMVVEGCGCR

| Kd [nM] | Binder |
| --- | --- |
| 9 | SSSVDLYFPLKGDVVSR (not fully specified (residues 1, 2, 16, 17, C-terminus); also: C-terminal Lys(ε-biotin), linker before it not given here, Synthetic form of the peptide of clone AP02-59; not shown: C-terminal biotinylated lysine; any linker before it is not spelled out for this peptide) [AFF-2012] |
| 10 | SSFEPLRFPLKGVPVSR (not fully specified (residues 1, 2, 16, 17, C-terminus); also: C-terminal Lys(ε-biotin), linker before it not given here, Synthetic form of the peptide of clone AP02-60; not shown: C-terminal biotinylated lysine; any linker before it is not spelled out for this peptide) [AFF-2009] |
